# B1: Exostosin-2 (Homo sapiens), Q93063 (parent)
# chain: MCASVKYNIRGPALIPRMKTKHRIYYITLFSIVLLGLIATGMFQFWPHSIESSNDWNVEKRSIRDVPVVRLPADSPIPERGDLSCRMHTCFDVYRCGFNPKNKIKVYIYALKKYVDDFGVSVSNTISREYNELLMAISDSDYYTDDINRACLFVPSIDVLNQNTLRIKETAQAMAQLSRWDRGTNHLLFNMLPGGPPDYNTALDVPRDRALLAGGGFSTWTYRQGYDVSIPVYSPLSAEVDLPEKGPGPRQYFLLSSQVGLHPEYREDLEALQVKHGESVLVLDKCTNLSEGVLSVRKRCHKHQVFDYPQVLQEATFCVVLRGARLGQAVLSDVLQAGCVPVVIADSYILPFSEVLDWKRASVVVPEEKMSDVYSILQSIPQRQIEEMQRQARWFWEAYFQSIKAIALATLQIINDRIYPYAAISYEEWNDPPAVKWGSVSNPLFLPLIPPQSQGFTAIVLTYDRVESLFRVITEVSKVPSLSKLLVVWNNQNKNPPEDSLWPKIRVPLKVVRTAENKLSNRFFPYDEIETEAVLAIDDDIIMLTSDELQFGYEVWREFPDRLVGYPGRLHLWDHEMNKWKYESEWTNEVSMVLTGAAFYHKYFNYLYTYKMPGDIKNWVDAHMNCEDIAMNFLVANVTGKAVIKVTPRKKFKCPECTAIDGLSLDQTHMVERSECINKFASVFGTMPLKVVEHRADPVLYKDDFPEKLKSFPNIGSL
# partner: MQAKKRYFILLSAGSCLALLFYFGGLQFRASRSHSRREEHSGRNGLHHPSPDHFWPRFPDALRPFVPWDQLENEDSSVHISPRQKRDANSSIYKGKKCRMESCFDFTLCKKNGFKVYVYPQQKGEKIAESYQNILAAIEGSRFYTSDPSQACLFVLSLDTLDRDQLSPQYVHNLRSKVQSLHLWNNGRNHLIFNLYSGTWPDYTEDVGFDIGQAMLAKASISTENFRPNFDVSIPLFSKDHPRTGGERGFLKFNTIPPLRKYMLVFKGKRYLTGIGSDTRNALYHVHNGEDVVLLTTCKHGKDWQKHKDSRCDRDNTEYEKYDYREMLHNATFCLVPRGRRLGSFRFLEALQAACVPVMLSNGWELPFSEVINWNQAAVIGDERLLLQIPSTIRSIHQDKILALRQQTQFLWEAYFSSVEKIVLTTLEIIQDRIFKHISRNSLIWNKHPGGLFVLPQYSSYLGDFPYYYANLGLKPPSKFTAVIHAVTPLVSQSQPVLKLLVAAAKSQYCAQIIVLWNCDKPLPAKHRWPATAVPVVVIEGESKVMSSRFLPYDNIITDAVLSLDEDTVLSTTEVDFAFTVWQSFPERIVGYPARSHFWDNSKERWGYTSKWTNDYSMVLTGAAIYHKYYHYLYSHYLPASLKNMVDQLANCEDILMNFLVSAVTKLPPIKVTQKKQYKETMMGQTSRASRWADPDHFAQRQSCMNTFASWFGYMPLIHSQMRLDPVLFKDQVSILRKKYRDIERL
# B2: Exostosin-1 (Homo sapiens), Q16394 (parent)
# chain: B1 partner
# partner: B1 chain
# Variants of: B1
# Details: with ext1_human EXT1, Q16394
row,Variant,effect of a mutation on the interaction
1,R266A,with no effect
2,D538N;D540N,with no effect

# Variants of: B2
# Details: with ext2_human EXT2, Q93063
row,Variant,effect of a mutation on the interaction
1,D565N;D567N,decreasing interaction strength
2,R346A,with no effect
3,R280A,with no effect
4,D162N;D164N,with no effect

# — IntAct's records for PubMed 36402845
